Where two headings read alike, the source gives them in different places.
Experiments:
Assay in all cases: FRET or BRET
[1] = molecular target: RNC_(RodZ): ribosome-nascent chain complex displaying the N-terminal 180 amino acids of RodZ (UniProt P27434)
[2] = molecular target: RNC_(RodZ): ribosome-nascent chain complex displaying the N-terminal 180 amino acids of RodZ (UniProt P27434); remark: listed apart in the source
[3] = molecular target: RNC_(RodZ) bearing the mutant TMD with two arginines introduced (UniProt P27434)
[4] = molecular target: RNC_(RodZ): ribosome-nascent chain complex displaying the N-terminal 180 amino acids of RodZ (UniProt P27434); remark: listed apart in the source
[5] = molecular target: RNC_(RodZ160): ribosome-nascent chain complex with a RodZ nascent chain of 160 amino acids (UniProt P27434)

Question: For “SecA(C98S/S12C) labeled at residue 12 with BODIPY-FL (from UniProt P10408 1-901) (enzyme)”, which Kd [1] is on record?
Answer: The Kd was 55 nM.

Question: What about the Kd [2] of the same substance?
Answer: The Kd was 19 nM.

Question: What about the Kd [3] of the same substance?
Answer: The Kd was 25.9 nM.

Question: And the Kd [4]?
Answer: The Kd was 1 nM.

Question: And the reduction in Cm donor fluorescence (FRET) [4]?
Answer: The reduction in Cm donor fluorescence (FRET) was 44%.

Question: And the Kd [5]?
Answer: The Kd was 0.94 nM.
